Data from patent EP4467153A1, “CONSTRAINED PEPTIDE INHIBITORS OF LRRK2-FADD INTERACTIONS” (University of Georgia Research Foundation, Inc., priority 2023, dated 2024).
Positions of bridges follow the written chain, without caps; N, C: chain ends. Non-standard residues stand in square brackets, D forms with d. Primed or numbered codes have the meaning given here. FAM = 5(6)-carboxyfluorescein label; S5 = C=CCCC[C@](C)(N)C(=O)O; PEG3′ = PEG3 spacer

Molecular target: T1, LRRK2-FADD PPI (Flag G2019S-LRRK2 and V5-FADD) (Homo sapiens, UniProt Q5S007, G2019S)
T1 construct: expressed in transfected cells; host or cells: HEK293T
T1 sequence (Q5S007 whole entry G2019S): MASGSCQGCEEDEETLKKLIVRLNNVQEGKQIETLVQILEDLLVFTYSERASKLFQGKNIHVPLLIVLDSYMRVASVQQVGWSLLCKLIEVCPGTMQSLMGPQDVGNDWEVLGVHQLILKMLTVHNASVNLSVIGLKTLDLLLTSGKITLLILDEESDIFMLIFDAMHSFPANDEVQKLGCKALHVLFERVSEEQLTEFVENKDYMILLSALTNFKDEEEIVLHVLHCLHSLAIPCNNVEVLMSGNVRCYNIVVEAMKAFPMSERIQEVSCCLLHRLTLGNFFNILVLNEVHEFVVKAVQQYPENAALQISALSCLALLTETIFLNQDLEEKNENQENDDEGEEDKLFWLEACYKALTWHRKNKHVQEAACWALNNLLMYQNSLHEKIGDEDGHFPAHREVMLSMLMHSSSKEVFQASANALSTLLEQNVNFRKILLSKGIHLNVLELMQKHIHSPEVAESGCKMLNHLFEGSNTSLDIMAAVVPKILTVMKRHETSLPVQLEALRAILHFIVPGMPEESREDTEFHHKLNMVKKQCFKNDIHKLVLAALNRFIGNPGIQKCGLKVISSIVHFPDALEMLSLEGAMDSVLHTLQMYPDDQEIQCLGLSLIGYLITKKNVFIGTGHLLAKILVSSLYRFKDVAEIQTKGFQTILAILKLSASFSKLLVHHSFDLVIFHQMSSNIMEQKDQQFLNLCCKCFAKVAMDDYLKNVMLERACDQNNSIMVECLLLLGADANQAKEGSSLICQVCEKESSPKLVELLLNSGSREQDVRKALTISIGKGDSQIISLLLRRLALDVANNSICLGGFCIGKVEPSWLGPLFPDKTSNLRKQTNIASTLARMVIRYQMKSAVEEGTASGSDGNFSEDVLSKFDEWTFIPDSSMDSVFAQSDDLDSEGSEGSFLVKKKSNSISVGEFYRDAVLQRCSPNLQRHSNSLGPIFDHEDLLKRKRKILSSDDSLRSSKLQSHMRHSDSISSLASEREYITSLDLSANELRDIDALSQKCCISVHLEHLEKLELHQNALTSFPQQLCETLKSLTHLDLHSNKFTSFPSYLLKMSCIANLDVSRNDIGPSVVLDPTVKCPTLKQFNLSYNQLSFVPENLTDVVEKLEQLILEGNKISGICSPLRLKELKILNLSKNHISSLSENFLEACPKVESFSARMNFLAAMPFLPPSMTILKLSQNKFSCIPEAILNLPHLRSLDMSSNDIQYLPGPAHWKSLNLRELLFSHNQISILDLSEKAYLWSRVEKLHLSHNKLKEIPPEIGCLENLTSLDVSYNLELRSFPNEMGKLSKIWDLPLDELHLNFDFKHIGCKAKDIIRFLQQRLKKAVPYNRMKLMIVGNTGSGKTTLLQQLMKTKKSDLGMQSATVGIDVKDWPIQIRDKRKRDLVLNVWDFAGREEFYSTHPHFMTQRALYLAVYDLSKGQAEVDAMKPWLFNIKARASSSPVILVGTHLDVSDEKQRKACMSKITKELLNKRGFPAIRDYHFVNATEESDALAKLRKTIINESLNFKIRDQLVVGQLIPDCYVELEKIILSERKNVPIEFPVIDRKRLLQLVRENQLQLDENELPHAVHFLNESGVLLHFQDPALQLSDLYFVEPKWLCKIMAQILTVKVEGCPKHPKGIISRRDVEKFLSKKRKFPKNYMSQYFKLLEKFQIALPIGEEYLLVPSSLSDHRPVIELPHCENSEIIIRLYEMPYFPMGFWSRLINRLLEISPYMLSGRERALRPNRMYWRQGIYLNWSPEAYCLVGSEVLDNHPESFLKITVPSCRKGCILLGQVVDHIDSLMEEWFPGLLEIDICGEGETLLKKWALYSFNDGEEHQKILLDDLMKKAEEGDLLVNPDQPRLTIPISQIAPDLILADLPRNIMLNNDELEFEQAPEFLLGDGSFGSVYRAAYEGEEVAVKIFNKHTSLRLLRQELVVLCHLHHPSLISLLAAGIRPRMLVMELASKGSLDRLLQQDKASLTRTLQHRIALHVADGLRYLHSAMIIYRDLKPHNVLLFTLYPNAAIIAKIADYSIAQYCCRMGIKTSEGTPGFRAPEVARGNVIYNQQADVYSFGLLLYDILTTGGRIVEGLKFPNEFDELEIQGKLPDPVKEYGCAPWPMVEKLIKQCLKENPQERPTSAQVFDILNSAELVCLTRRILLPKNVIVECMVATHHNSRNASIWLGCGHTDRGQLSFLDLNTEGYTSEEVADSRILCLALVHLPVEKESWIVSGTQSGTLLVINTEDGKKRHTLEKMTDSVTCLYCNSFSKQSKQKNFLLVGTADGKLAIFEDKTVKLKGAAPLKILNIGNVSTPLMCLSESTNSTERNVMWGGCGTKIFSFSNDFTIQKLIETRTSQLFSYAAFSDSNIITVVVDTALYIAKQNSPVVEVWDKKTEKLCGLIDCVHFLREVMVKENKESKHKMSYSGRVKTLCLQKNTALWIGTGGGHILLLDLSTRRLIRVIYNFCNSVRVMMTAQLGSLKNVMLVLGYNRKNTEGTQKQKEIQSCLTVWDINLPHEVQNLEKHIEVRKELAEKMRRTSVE
Assay: Co-immunoprecipitation of LRRK2-FADD interaction in transfected HEK293T cells
Assay type: cell-based
Conditions: 10 µM, 48 hr, normalized to immunoprecipitated Flag-LRRK2
Description: It was then assessed whether this peptide library (FARM1-FARM5) could disrupt the interaction between over-expressed Flag G2019S-LRRK2 and V5-FADD by co-immunoprecipitation. Flag-LRRK2 was purified on anti-Flag resin and the eluate as well as the protein extract (input) separated by SDS-PAGE, with the membranes probed for V5 (FADD) and Flag (LRRK2). The transfected cells were treated with the indicated peptide (10 µM) for a total of 48 hr prior to collection. […] To minimize the use of primary mouse cortical neuron cultures, FARMS was used in subsequent experiments to examine the potential neuroprotective effects of LRRK2-FADD disruption.
Assessment of LRRK2-FADD interaction. Co-immunoprecipitation was undertaken to determine the effects of the stapled peptides on the LRRK2-FADD PPI, as previously described. Briefly, 10cm plates of HEK293T cells transiently expressing Flag-WT or mutant LRRK2 and V5-FADD (at a 3:1 ratio), and treated with different concentrations of FARM peptides (as indicated in the Figure legends), were washed in PBS and lysed in co-IP buffer (20mM HEPES, pH7.4; 150 mM NaCl; 0.1% NP40; 2 mM EGTA; 2 mM MgCl2; 10% glycerol, pH 7.2; protease and phosphatase cocktail [Agilent Technologies]) for 30 min on ice followed by 15 strokes with a Dounce glass homogenizer, and centrifugation at 13000 rpm for 15 min to remove cellular debris. Following pre-clearing with IgG-coupled beads, 40 µl of washed anti-Flag resin (Sigma-Aldrich) per mg of protein was added and the samples incubated under rotation overnight at 4°C. The following morning, the beads were centrifuged and washed a total of 5X with coIP buffer, before elution in 2X SDS sample buffer at 95°C for 10 min. The eluate (and input) was separated by SDS-PAGE and membranes probed with anti-Flag (LRRK2) and V5 (FADD).

Substance	amount of FADD that co-purified with G2019S-LRRK2 (LRRK2-FADD interaction)
FARM2: FAM-labeled hydrocarbon-stapled FADD Armadillo domain peptide; mass fits SEQ ID NO. 3 KVADLXQEVXQARDLQNRSK ({FAM-PEG3′}-KVADL[S5]QEV[S5]QARDLQNRSK-NH2; staple 6-10; not fully specified) [FAM-labeled hydrocarbon-stapled FADD Armadillo domain peptide; 3 KVADLXQEVX…]	to a lesser extent
FARM3: FAM-labeled hydrocarbon-stapled FADD Armadillo domain peptide; mass fits SEQ ID NO. 4 KVADLVQEXQQAXDLQNRSK ({FAM-PEG3′}-KVADLVQE[S5]QQA[S5]DLQNRSK-NH2; staple 9-13; not fully specified) [FAM-labeled hydrocarbon-stapled FADD Armadillo domain peptide; 4 KVADLVQEXQQAXDLQNRSK]	reduced the interaction between LRRK2 and FADD
